# Test results from patent publication US20260070987A1.
# B1: equine IgG1 D312T (antibody, part only; not given: Variable domains, not shown: another chain or arm of the molecule)
# constant: ASTTAPKVFALAPGCGTTSDSTVALGCLVSGYFPEPVKVSWNSGSLTSGVHTFPSVLQSSGFYSLSSMVTVPASTWTSETYICNVVHAASNFKVDKRIEPIPDNHQKVCDMSKCPKCPAPELLGGPSVFIFPPNPKDTLMITRTPEVTCVVVDVSQENPDVKFNWYMDGVEVRTATTRPKEEQFNSTYRVVSVLRIQHQTWLSGKEFKCKVNNQALPQPIERTITKTKGRSQEPQVYVLAPHPDELSKSKVSVTCLVKDFYPPEINIEWQSNGQPELETKYSTTQAQQDSDGSYFLYSKLSVDRNRWQQGTTFTCGVMHEALHNHYTQKNVSKNPGK
# B2: equine IgG1 G426C (antibody, part only; not given: variable domains, not shown: another chain or arm of the molecule)
# constant: ASTTAPKVFALAPGCGTTSDSTVALGCLVSGYFPEPVKVSWNSGSLTSGVHTFPSVLQSSGFYSLSSMVTVPASTWTSETYICNVVHAASNFKVDKRIEPIPDNHQKVCDMSKCPKCPAPELLGGPSVFIFPPNPKDTLMITRTPEVTCVVVDVSQENPDVKFNWYMDGVEVRTATTRPKEEQFNSTYRVVSVLRIQHQDWLSGKEFKCKVNNQALPQPIERTITKTKGRSQEPQVYVLAPHPDELSKSKVSVTCLVKDFYPPEINIEWQSNGQPELETKYSTTQAQQDSDGSYFLYSKLSVDRNRWQQGTTFTCCVMHEALHNHYTQKNVSKNPGK
# B3: equine IgG1 D312W (antibody, part only; not given: variable domains, not shown: another chain or arm of the molecule)
# constant: ASTTAPKVFALAPGCGTTSDSTVALGCLVSGYFPEPVKVSWNSGSLTSGVHTFPSVLQSSGFYSLSSMVTVPASTWTSETYICNVVHAASNFKVDKRIEPIPDNHQKVCDMSKCPKCPAPELLGGPSVFIFPPNPKDTLMITRTPEVTCVVVDVSQENPDVKFNWYMDGVEVRTATTRPKEEQFNSTYRVVSVLRIQHQWWLSGKEFKCKVNNQALPQPIERTITKTKGRSQEPQVYVLAPHPDELSKSKVSVTCLVKDFYPPEINIEWQSNGQPELETKYSTTQAQQDSDGSYFLYSKLSVDRNRWQQGTTFTCGVMHEALHNHYTQKNVSKNPGK
# B4: equine IgG1 M252W (antibody, part only; not given: variable domains, not shown: another chain or arm of the molecule)
# constant: ASTTAPKVFALAPGCGTTSDSTVALGCLVSGYFPEPVKVSWNSGSLTSGVHTFPSVLQSSGFYSLSSMVTVPASTWTSETYICNVVHAASNFKVDKRIEPIPDNHQKVCDMSKCPKCPAPELLGGPSVFIFPPNPKDTLWITRTPEVTCVVVDVSQENPDVKFNWYMDGVEVRTATTRPKEEQFNSTYRVVSVLRIQHQDWLSGKEFKCKVNNQALPQPIERTITKTKGRSQEPQVYVLAPHPDELSKSKVSVTCLVKDFYPPEINIEWQSNGQPELETKYSTTQAQQDSDGSYFLYSKLSVDRNRWQQGTTFTCGVMHEALHNHYTQKNVSKNPGK
# B5: equine IgG1 G426E (antibody, part only; not given: Variable domains, not shown: another chain or arm of the molecule)
# constant: ASTTAPKVFALAPGCGTTSDSTVALGCLVSGYFPEPVKVSWNSGSLTSGVHTFPSVLQSSGFYSLSSMVTVPASTWTSETYICNVVHAASNFKVDKRIEPIPDNHQKVCDMSKCPKCPAPELLGGPSVFIFPPNPKDTLMITRTPEVTCVVVDVSQENPDVKFNWYMDGVEVRTATTRPKEEQFNSTYRVVSVLRIQHQDWLSGKEFKCKVNNQALPQPIERTITKTKGRSQEPQVYVLAPHPDELSKSKVSVTCLVKDFYPPEINIEWQSNGQPELETKYSTTQAQQDSDGSYFLYSKLSVDRNRWQQGTTFTCEVMHEALHNHYTQKNVSKNPGK
# B6: equine IgG1 G426D (antibody, part only; not given: variable domains, not shown: another chain or arm of the molecule)
# constant: ASTTAPKVFALAPGCGTTSDSTVALGCLVSGYFPEPVKVSWNSGSLTSGVHTFPSVLQSSGFYSLSSMVTVPASTWTSETYICNVVHAASNFKVDKRIEPIPDNHQKVCDMSKCPKCPAPELLGGPSVFIFPPNPKDTLMITRTPEVTCVVVDVSQENPDVKFNWYMDGVEVRTATTRPKEEQFNSTYRVVSVLRIQHQDWLSGKEFKCKVNNQALPQPIERTITKTKGRSQEPQVYVLAPHPDELSKSKVSVTCLVKDFYPPEINIEWQSNGQPELETKYSTTQAQQDSDGSYFLYSKLSVDRNRWQQGTTFTCDVMHEALHNHYTQKNVSKNPGK
# B7: equine IgG1 M252Y (antibody, part only; not given: variable domains, not shown: another chain or arm of the molecule)
# constant: ASTTAPKVFALAPGCGTTSDSTVALGCLVSGYFPEPVKVSWNSGSLTSGVHTFPSVLQSSGFYSLSSMVTVPASTWTSETYICNVVHAASNFKVDKRIEPIPDNHQKVCDMSKCPKCPAPELLGGPSVFIFPPNPKDTLYITRTPEVTCVVVDVSQENPDVKFNWYMDGVEVRTATTRPKEEQFNSTYRVVSVLRIQHQDWLSGKEFKCKVNNQALPQPIERTITKTKGRSQEPQVYVLAPHPDELSKSKVSVTCLVKDFYPPEINIEWQSNGQPELETKYSTTQAQQDSDGSYFLYSKLSVDRNRWQQGTTFTCGVMHEALHNHYTQKNVSKNPGK
# B8: equine IgG1 G426H (antibody, part only; not given: variable domains, not shown: another chain or arm of the molecule)
# constant: ASTTAPKVFALAPGCGTTSDSTVALGCLVSGYFPEPVKVSWNSGSLTSGVHTFPSVLQSSGFYSLSSMVTVPASTWTSETYICNVVHAASNFKVDKRIEPIPDNHQKVCDMSKCPKCPAPELLGGPSVFIFPPNPKDTLMITRTPEVTCVVVDVSQENPDVKFNWYMDGVEVRTATTRPKEEQFNSTYRVVSVLRIQHQDWLSGKEFKCKVNNQALPQPIERTITKTKGRSQEPQVYVLAPHPDELSKSKVSVTCLVKDFYPPEINIEWQSNGQPELETKYSTTQAQQDSDGSYFLYSKLSVDRNRWQQGTTFTCHVMHEALHNHYTQKNVSKNPGK
# B9: equine IgG1 D312Y (antibody, part only; not given: variable domains, not shown: another chain or arm of the molecule)
# constant: ASTTAPKVFALAPGCGTTSDSTVALGCLVSGYFPEPVKVSWNSGSLTSGVHTFPSVLQSSGFYSLSSMVTVPASTWTSETYICNVVHAASNFKVDKRIEPIPDNHQKVCDMSKCPKCPAPELLGGPSVFIFPPNPKDTLMITRTPEVTCVVVDVSQENPDVKFNWYMDGVEVRTATTRPKEEQFNSTYRVVSVLRIQHQYWLSGKEFKCKVNNQALPQPIERTITKTKGRSQEPQVYVLAPHPDELSKSKVSVTCLVKDFYPPEINIEWQSNGQPELETKYSTTQAQQDSDGSYFLYSKLSVDRNRWQQGTTFTCGVMHEALHNHYTQKNVSKNPGK
# B10: equine IgG1 G426L (antibody, part only; not given: variable domains, not shown: another chain or arm of the molecule)
# constant: ASTTAPKVFALAPGCGTTSDSTVALGCLVSGYFPEPVKVSWNSGSLTSGVHTFPSVLQSSGFYSLSSMVTVPASTWTSETYICNVVHAASNFKVDKRIEPIPDNHQKVCDMSKCPKCPAPELLGGPSVFIFPPNPKDTLMITRTPEVTCVVVDVSQENPDVKFNWYMDGVEVRTATTRPKEEQFNSTYRVVSVLRIQHQDWLSGKEFKCKVNNQALPQPIERTITKTKGRSQEPQVYVLAPHPDELSKSKVSVTCLVKDFYPPEINIEWQSNGQPELETKYSTTQAQQDSDGSYFLYSKLSVDRNRWQQGTTFTCLVMHEALHNHYTQKNVSKNPGK
# B11: equine IgG1 D312V (antibody, part only; not given: Variable domains, not shown: another chain or arm of the molecule)
# constant: ASTTAPKVFALAPGCGTTSDSTVALGCLVSGYFPEPVKVSWNSGSLTSGVHTFPSVLQSSGFYSLSSMVTVPASTWTSETYICNVVHAASNFKVDKRIEPIPDNHQKVCDMSKCPKCPAPELLGGPSVFIFPPNPKDTLMITRTPEVTCVVVDVSQENPDVKFNWYMDGVEVRTATTRPKEEQFNSTYRVVSVLRIQHQVWLSGKEFKCKVNNQALPQPIERTITKTKGRSQEPQVYVLAPHPDELSKSKVSVTCLVKDFYPPEINIEWQSNGQPELETKYSTTQAQQDSDGSYFLYSKLSVDRNRWQQGTTFTCGVMHEALHNHYTQKNVSKNPGK
# B12: equine IgG1 G426I (antibody, part only; not given: variable domains, not shown: another chain or arm of the molecule)
# constant: ASTTAPKVFALAPGCGTTSDSTVALGCLVSGYFPEPVKVSWNSGSLTSGVHTFPSVLQSSGFYSLSSMVTVPASTWTSETYICNVVHAASNFKVDKRIEPIPDNHQKVCDMSKCPKCPAPELLGGPSVFIFPPNPKDTLMITRTPEVTCVVVDVSQENPDVKFNWYMDGVEVRTATTRPKEEQFNSTYRVVSVLRIQHQDWLSGKEFKCKVNNQALPQPIERTITKTKGRSQEPQVYVLAPHPDELSKSKVSVTCLVKDFYPPEINIEWQSNGQPELETKYSTTQAQQDSDGSYFLYSKLSVDRNRWQQGTTFTCIVMHEALHNHYTQKNVSKNPGK
# B13: equine IgG1 G426F (antibody, part only; not given: variable domains, not shown: another chain or arm of the molecule)
# constant: ASTTAPKVFALAPGCGTTSDSTVALGCLVSGYFPEPVKVSWNSGSLTSGVHTFPSVLQSSGFYSLSSMVTVPASTWTSETYICNVVHAASNFKVDKRIEPIPDNHQKVCDMSKCPKCPAPELLGGPSVFIFPPNPKDTLMITRTPEVTCVVVDVSQENPDVKFNWYMDGVEVRTATTRPKEEQFNSTYRVVSVLRIQHQDWLSGKEFKCKVNNQALPQPIERTITKTKGRSQEPQVYVLAPHPDELSKSKVSVTCLVKDFYPPEINIEWQSNGQPELETKYSTTQAQQDSDGSYFLYSKLSVDRNRWQQGTTFTCFVMHEALHNHYTQKNVSKNPGK
# B14: equine IgG1 G426K (antibody, part only; not given: Variable domains, not shown: another chain or arm of the molecule)
# constant: ASTTAPKVFALAPGCGTTSDSTVALGCLVSGYFPEPVKVSWNSGSLTSGVHTFPSVLQSSGFYSLSSMVTVPASTWTSETYICNVVHAASNFKVDKRIEPIPDNHQKVCDMSKCPKCPAPELLGGPSVFIFPPNPKDTLMITRTPEVTCVVVDVSQENPDVKFNWYMDGVEVRTATTRPKEEQFNSTYRVVSVLRIQHQDWLSGKEFKCKVNNQALPQPIERTITKTKGRSQEPQVYVLAPHPDELSKSKVSVTCLVKDFYPPEINIEWQSNGQPELETKYSTTQAQQDSDGSYFLYSKLSVDRNRWQQGTTFTCKVMHEALHNHYTQKNVSKNPGK
# B15: equine IgG1 G426A (antibody, part only; not given: variable domains, not shown: another chain or arm of the molecule)
# constant: ASTTAPKVFALAPGCGTTSDSTVALGCLVSGYFPEPVKVSWNSGSLTSGVHTFPSVLQSSGFYSLSSMVTVPASTWTSETYICNVVHAASNFKVDKRIEPIPDNHQKVCDMSKCPKCPAPELLGGPSVFIFPPNPKDTLMITRTPEVTCVVVDVSQENPDVKFNWYMDGVEVRTATTRPKEEQFNSTYRVVSVLRIQHQDWLSGKEFKCKVNNQALPQPIERTITKTKGRSQEPQVYVLAPHPDELSKSKVSVTCLVKDFYPPEINIEWQSNGQPELETKYSTTQAQQDSDGSYFLYSKLSVDRNRWQQGTTFTCAVMHEALHNHYTQKNVSKNPGK
# B16: equine IgG1 G426M (antibody, part only; not given: variable domains, not shown: another chain or arm of the molecule)
# constant: ASTTAPKVFALAPGCGTTSDSTVALGCLVSGYFPEPVKVSWNSGSLTSGVHTFPSVLQSSGFYSLSSMVTVPASTWTSETYICNVVHAASNFKVDKRIEPIPDNHQKVCDMSKCPKCPAPELLGGPSVFIFPPNPKDTLMITRTPEVTCVVVDVSQENPDVKFNWYMDGVEVRTATTRPKEEQFNSTYRVVSVLRIQHQDWLSGKEFKCKVNNQALPQPIERTITKTKGRSQEPQVYVLAPHPDELSKSKVSVTCLVKDFYPPEINIEWQSNGQPELETKYSTTQAQQDSDGSYFLYSKLSVDRNRWQQGTTFTCMVMHEALHNHYTQKNVSKNPGK
# Target: equine FcRn (large alpha subunit p51) / equine beta-2-microglobulin complex, biotinylated (equine) (UniProt P30441)
# Sequence of UniProt P30441 (P30441 21-118, one chain of several): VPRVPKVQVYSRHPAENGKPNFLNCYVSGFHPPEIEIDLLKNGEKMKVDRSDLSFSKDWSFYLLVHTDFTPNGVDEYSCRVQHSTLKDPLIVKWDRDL
# Assay: SPR (Biacore), pH 6
row,Binder,Kd
1,B1,20.3 nM
2,B2,20.4 nM
3,B3,21.6 nM
4,B4,26.6 nM
5,B5,24.1 nM
6,B6,25.3 nM
7,B7,19.3 nM
8,B8,12.8 nM
9,B9,17.1 nM
10,B10,9.61 nM
11,B11,8.32 nM
12,B12,9.47 nM
13,B13,13.1 nM
14,B14,9.3 nM
15,B15,17.6 nM
16,B16,9.09 nM
